Test results published in patent publication US20230181770A1, “COMPOSITIONS AND METHODS OF TARGETING AND IMAGING AGED MICROGLIA WITH Aß PEPTIDE AMINO ACID RESIDUES FOR V-DOMAIN BINDING OF RAGE” (Neurosn, Inc., priority 2018, published 2023).

Molecular target: T1, RAGE receptors (Mus musculus, UniProt Q62151)
T1 construct: from tissue; host or cells: mouse brain (APPSWE Model 2789 and C57BL/6 mice), after tail vein injection
Assay: Brain autoradiography (AR) binding localization after tail vein injection in AD and normal mice
Assay type: in vivo
Conditions: 50 μCi per tail vein at day 0, sacrificed day 3
Source text: Four APPSWE Model 2789 mice (AD) and 4 C57BL/6 mice (normal) receive an injection of 50 μCi of Sn-IBD-Aβ(16-23) per tail vein at day 0.
Additionally, four APPSWE Model 2789 mice (AD) and 4 C57BL/6 mice (normal) receive an injection of 50 μCi of Sn-IBD-K-Aβ(23-17) per tail vein at day 0.
All the animals are sacrificed on day 3 post Sn-Aβ-AA injection and brains preserved and autoradiography (AR) binding localization in AD-specific areas mapped.
Findings—Histopathological comparison and autoradiography dosimetry are measured in each mouse brain in comparative anatomic regions.

T1 sequence (Q62151 23-402): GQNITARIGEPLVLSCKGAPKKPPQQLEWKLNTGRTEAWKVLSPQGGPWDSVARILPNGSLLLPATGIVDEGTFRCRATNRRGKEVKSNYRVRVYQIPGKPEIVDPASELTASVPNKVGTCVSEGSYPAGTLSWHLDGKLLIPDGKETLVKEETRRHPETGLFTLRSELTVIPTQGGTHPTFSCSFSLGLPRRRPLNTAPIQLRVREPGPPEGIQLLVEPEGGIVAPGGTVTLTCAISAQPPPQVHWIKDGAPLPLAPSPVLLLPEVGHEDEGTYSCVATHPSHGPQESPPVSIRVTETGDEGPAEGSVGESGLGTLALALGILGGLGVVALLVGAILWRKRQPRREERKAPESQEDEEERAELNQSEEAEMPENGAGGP

## Sn-IBD-Aβ(16-23) (KLVFFAED; Amyloid-beta protein 42 Sn-IBD conjugate; UniProt P05067 687-694, looked up, fragment)
RAGE expressing APPSWE Model 2789 mice (AD)
  AR distribution of RAGE binding in brain: increase in RAGE binding
Normal C57BL/6 mice
  AR distribution of RAGE binding in cortical and hippocampal areas: minimal
